# In patent publication US12303551B2, “Cellular immunotherapy compositions and uses thereof” (CERO THERPEUTICS HOLDINGS, INC., priority 2018, dated 2025):
# B1: CER112: Chimeric engulfment receptor: Tim4 binding, Tim4 transmembrane, TRAF6 and NFAM1 signaling; SEQ ID NO: 148 (protein)
# chain: MSKGLLLLWLVTELWWLYLTPAASEDTIIGFLGQPVTLPCHYLSWSQSRNSMCWGKGSCPNSKCNAELLRTDGTRIISRKSTKYTLLGKVQFGEVSLTISNTNRGDSGVYCCRIEVPGWFNDVKKNVRLELRRATTTKKPTTTTRPTTTPYVTTTTPELLPTTVMTTSVLPTTTPPQTLATTAFSTAVTTCPSTTPGSFSQETTKGSAFTTESETLPASNHSQRSMMTISTDIAVLRPTGSNPGILPSTSQLTTQKTTLTTSESLQKTTKSHQINSRQTILIIACCVGFVLMVLLFLAFLMSLLNCENSCGSSQSESDCCVAMASSCSAVTKDDSVGGTASTGNLSSSFMEEIQGYDVEFDPPLESKYECPICLMALREAVQTPCGHRFCKACIIKSIRDAGHKCPVDNEILLENQLFPDNFAKREILSLMVKCPNEGCLHKMELRHLEDHQAHCEFALMDCPQCQRPFQKFHINIHILKDCPRRQVSCDNCAASMAFEDKEIHDQNCPLANVICEYCNTILIREQMPNHYDLDCPTAPIPCTFSTFGCHEKMQRNHLARHLQENTQSHMRMLALWNKKRMRGPGKDPTRKCPDPRSASSPKQHPSESVYTALQRRETEVYACIENEDGSSPTAKQSPLSQERPHRFEDDGELNLVYENL
# modifications: CER112, amino acids 1-22 are signal peptide
# B2: CER113: Chimeric engulfment receptor: Tim4 binding, Tim4 transmembrane, TRAF6 and Baff-R signaling; SEQ ID NO: 149 (protein)
# chain: MSKGLLLLWLVTELWWLYLTPAASEDTIIGFLGQPVTLPCHYLSWSQSRNSMCWGKGSCPNSKCNAELLRTDGTRIISRKSTKYTLLGKVQFGEVSLTISNTNRGDSGVYCCRIEVPGWFNDVKKNVRLELRRATTTKKPTTTTRPTTTPYVTTTTPELLPTTVMTTSVLPTTTPPQTLATTAFSTAVTTCPSTTPGSFSQETTKGSAFTTESETLPASNHSQRSMMTISTDIAVLRPTGSNPGILPSTSQLTTQKTTLTTSESLQKTTKSHQINSRQTILIIACCVGFVLMVLLFLAFLMSLLNCENSCGSSQSESDCCVAMASSCSAVTKDDSVGGTASTGNLSSSFMEEIQGYDVEFDPPLESKYECPICLMALREAVQTPCGHRFCKACIIKSIRDAGHKCPVDNEILLENQLFPDNFAKREILSLMVKCPNEGCLHKMELRHLEDHQAHCEFALMDCPQCQRPFQKFHINIHILKDCPRRQVSCDNCAASMAFEDKEIHDQNCPLANVICEYCNTILIREQMPNHYDLDCPTAPIPCTFSTFGCHEKMQRNHLARHLQENTQSHMRMLASWRRRQRRLRGASSAEAPDGDKDAPEPLDKVIILSPGISDATAPAWPPPGEDPGTTPPGHSVPVPATELGSTELVTTKTAGPEQQ
# modifications: CER113, amino acids 1-22 are signal peptide
# B3: CER114: Chimeric engulfment receptor: Tim4 binding, Tim4 transmembrane, TRAF6 and MERTK signaling; SEQ ID NO: 150 (protein)
# chain: MSKGLLLLWLVTELWWLYLTPAASEDTIIGFLGQPVTLPCHYLSWSQSRNSMCWGKGSCPNSKCNAELLRTDGTRIISRKSTKYTLLGKVQFGEVSLTISNTNRGDSGVYCCRIEVPGWFNDVKKNVRLELRRATTTKKPTTTTRPTTTPYVTTTTPELLPTTVMTTSVLPTTTPPQTLATTAFSTAVTTCPSTTPGSFSQETTKGSAFTTESETLPASNHSQRSMMTISTDIAVLRPTGSNPGILPSTSQLTTQKTTLTTSESLQKTTKSHQINSRQTILIIACCVGFVLMVLLFLAFLMSLLNCENSCGSSQSESDCCVAMASSCSAVTKDDSVGGTASTGNLSSSFMEEIQGYDVEFDPPLESKYECPICLMALREAVQTPCGHRFCKACIIKSIRDAGHKCPVDNEILLENQLFPDNFAKREILSLMVKCPNEGCLHKMELRHLEDHQAHCEFALMDCPQCQRPFQKFHINIHILKDCPRRQVSCDNCAASMAFEDKEIHDQNCPLANVICEYCNTILIREQMPNHYDLDCPTAPIPCTFSTFGCHEKMQRNHLARHLQENTQSHMRMLAALRRRVQETKFGGAFSEEDSQLVVNYRAKKSFCRRAIELTLQSLGVSEELQNKLEDVVIDRNLLVLGKVLGEGEFGSVMEGNLKQEDGTSQKVAVKTMKLDNFSQREIEEFLSEAACMKDFNHPNVIRLLGVCIELSSQGIPKPMVILPFMKYGDLHTFLLYSRLNTGPKYIHLQTLLKFMMDIAQGMEYLSNRNFLHRDLAARNCMLRDDMTVCVADFGLSKKIYSGDYYRQGRIAKMPVKWIAIESLADRVYTSKSDVWAFGVTMWEITTRGMTPYPGVQNHEMYDYLLHGHRLKQPEDCLDELYDIMYSCWSADPLDRPTFSVLRLQLEKLSESLPDAQDKESIIYINTQLLESCEGIANGPSLTGLDMNIDPDSIIASCTPGAAVSVVTAEVHENNLREERYILNGGNEEWEDVSSTPFAAVTPEKDGVLPEDRLTKNGVSWSHHSTLPLGSPSPDELLFVDDSLEDSEVLM
# modifications: CER114, amino acids 1-22 are signal peptide
# Tested on: SCC152 target cells
# Test: Phagocytosis of SCC152 by CD4+ T cell/CER, fluorescence microscopy with hybrid capture
# Type: cell-based
# Details: TRAF-domain CERs, 4 hours, 1:1:0.5 (CD8:CD4:target cell); versus CD4+ control + CD8+/E7 TCR
# Protocol: (§1) FIG. 28 is a bar graph representing quantification of CD4+ T cell-CER mediated phagocytosis of SCC152 target cells. Results calculated as ((number of phagocytic target events)/(total number of effectors))*100 from 3×3 40× images, 4 hours after initiation of co-culture assay. CD8+ T cells transduced with HPV16 E7 TCR and CD4+ T cells transduced with selected CERs (CER5, CER17, CER19, CER21, CER23, CER26, CER27, CER103b, CER104, CER105, CER106, or CER116) were co-cultured with SCC152 squamous head and neck carcinoma target cells at a 1:1:0.5 ratio for 4 hours and imaged.
# as §1, with “29” for “28”, “(median area ratio” for “((number”, “of” for “of phagocytic”, “events in effector cells*% phagocytosis)” for “events)/(total number of effectors))*100”
# (§2) FIG. 55 is a bar graph representing quantification of CD4+ T cell-CER mediated phagocytosis of SCC152 target cells. Percent phagocytosis was calculated as ((number of phagocytic target events)/(total number of effector cells))*100. These numbers were calculated from 3×3 images captured by Keyence BZ-X710 fluorescence microscope at 40× resolution, 4 hours after initiation of co-culture assay. CD8+ T cells transduced with HPV16 E7 TCR and CD4+ T cells transduced with a selected CER (CER29, CER30, CER110, CER112, CER113, CER114, CER116, or CER117) were co-cultured with SCC152 target cells at a 1:1:0.5 ratio (CD8:CD4:target cell) for 4 hours and imaged.
# as §2, with “56” for “55”, “Adjusted phagocytic index” for “Percent phagocytosis”, “(median area ratio” for “((number”, “of” for “of phagocytic”, “events in” for “events)/(total number of”, “cells*% phagocytosis).” for “cells))*100.”
# Phagocytic activity of CD4+ T cell/CER+CD8+ T cell/HPV16 E7 TCR combinations co-cultured with SCC152 cells was visualized and quantified using KEYENCE BZ-X710 fluorescence microscope, […] and hybrid capture software.
row,Molecule,"engulfment of SCC152 target cells (percent phagocytosis, adjusted phagocytic index)"
1,B1,enhanced engulfment
2,B2,enhanced engulfment
3,B3,enhanced engulfment

# Tested on: SCC152 cells
# Test: Elimination of GFP-expressing SCC152 target cells over time (quantification and time lapse imaging)
# Type: cell-based
# Details: 0 to 36 hrs, compared to the control
# In short: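 GFP-labelled SCC152 (HPV16+) target cells were co-cultured at 1:1:1 with CD8+ T cells carrying an HPV16 E7 TCR and with CD4+ T cells transduced with a chimeric CER or a control. Remaining target cells were counted by fluorescence imaging and automated software at 0, 12, 24, 36 h or 0, 24, 48 h.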
row,Molecule,"elimination of SCC152 cells, time lapse imaging"
1,B1,enhanced elimination of SCC152 cells
2,B2,enhanced elimination of SCC152 cells
3,B3,enhanced elimination of SCC152 cells

# Same assay, conditions: by 36 hrs, 1:1:1 ratio (CD8:CD4:target cell), compared to control
row,Molecule,elimination of SCC152 cells (GFP quantification)
1,B1,nearly complete elimination
2,B2,nearly complete elimination
3,B3,nearly complete elimination
